# Assay results as given in the supplement of paper PMC12636428.
# Test system: Saccharomyces cerevisiae
# Assay: transcriptional activation domain activity (GFP:mCherry ratio, weighted mean of sorted bins, harmonized to initial dataset scale) (arbitrary fluorescence ratio units); higher = stronger transcriptional activation
# Settings: beta-estradiol 1 µM; induction time 4 h
# In short: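 For this assay, yeast diploids with a GFP reporter carried barcoded protein tiles at URA3, each fused to an estradiol-inducible synthetic transcription factor. Induction was a 1:5 dilution into SC with 1 uM beta-estradiol for 4 hours at 30 °C, followed by sorting into 8 bins by GFP:mCherry ratio and barcode sequencing. Tiles under 50 reads were dropped, and activation activity was calculated as the read-weighted mean of bin median fluorescence, averaged across barcodes and linearly mapped onto the initial dataset scale.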
row,Sequence,transcriptional activation domain activity
1,VVGGQQKFGTKMVVESDKKCRLILLPRFAETGILVLVNMRTLAVKCVKFGTRG,19300
2,KGKAAKSGWDDDEDEKKKEEGEGEGGDGGDKSGDIGAGGDGDKKDEASGNADG,27500
3,STAARTHGSKRSRDEEDGEGEERAKKRSRSEERVNTTRETRATRATRATSARP,31100
4,MCGLVFLFLFPFVFSSFIGGVAIFFFSYFFYFIYFILQHTRILTCTWSVFLLF,75400
5,PQSANITGACTELGEHTDCPIWNLLDARSLFRSCADLLISSWTWWWLAACRYV,44700
6,QHKKRRAEQAGRGEKAEADGSQARRKAEDRREEQQRAKQSAGQKEQEKVKAEQ,56000
7,RDDGRRRNEKPQRSKNKGTSSTGSDKKKTTEKKSSSSRKTSGSQVDKKLSSKK,37900
8,SQKKHCELCKTAFRFTKLYSPDMPKHLPFHIFVHHMTRYLLRNFLVWLRAALV,43000
9,SCTGVFRAYSILIIMVMMLSEVIILFRTCVLIRRERHGHYIICILCFFSLCVL,49600
10,NGQRFVQLLCNECGTVLELSVLLASVYLSLNMGDLVRLQPGCLYESQKRQWGP,16300
11,MRLNICKDLWIHSAFRMLSDISAASLFLVSRSYFIIIFTVASLGYTRMLSLYH,51900
12,EYLDKLLAEFEEFDYSINRVLPDVIDFSALIGQDSSANNQIFSSEFSSDPTVN,139000
13,FIHLMNMTQVVVLCIHRFVYGLVPLFEITTCAFWPLLVSLWHLTYLLFYAIMF,64100
14,MADEHAAHRRKRARLACLACNARRVKCNVAECRPCHNCAAANVPCETRESRRG,38300
15,LHKRLEVTAYITCTRVIQRVVWFLLQGKYRLDYYWEEVWRALLNLLDFISNKI,71300
16,PLHLLGDKAEVEIGGVWSAGMAYGSRELVERHLFSLYFMLPLVAVCIGFLYHN,41200
17,DWYFDLPLWVFVCFFLFVFLTLMTFRTPSLTRYYCTVVYYLLGKWVGNCIVYT,18200
18,SSEESSSEDDDGDVKMADAKPAANGIYIYLSSINRLINPLQFQVSVKPTRMSL,47200
19,VVDHCVSRFSGFTFLFFVLFTAFYMWQIISFVLGVLRLVDMYNFYTHLLKIPD,54300
20,SDKKAGNDKEEKKEEKKADGSEEKGKKVKDAEKEKEDKKSQQSEKKADDNGDK,25000
21,DGDLDEAVYKGFEYKHLGNLAYIGNAAVFDLNGWSIGGGLIFVYLWRSVYFAQ,67800

row,Sequence,transcriptional activation domain activity
1,YFLLSILFFFFSNNFTFTLLYLLHASYHIQSLYRHILVSVFCNYPSLLLFFFL,53000
2,MVHIRTVVSFIFLVAGVLWTLFYLFIYFCLWDRRGHYVFLFCFCGCSRFMHFV,56500
3,MTISSPYCLFRCVAYGPWQTLSVLFCFFFFLLLFLSPSLHHLFYFLSLDFFSY,55500
4,MHYIGGYLVLFYFFLFLFFFYFFFFSPFFYFLPFLFFLFFSIPYFFFFAPFVS,39700
5,MAPETADKPSRRRHIKSRSGCKNCKKRKVKCGEERPSCRNCSRRGSLCDLADE,20400
6,GLEFVEPWTELIEQRYMQCGDGDNNNFENLYNLFVNSNNINNDINNSRPITRK,81200
7,LLECREDYINNNIRYCDDNKILLKSMIQMFVDLIPFSDKFLGLIFHIVPSFMH,44700
8,MQMIFFLSLTFLILLFFFFFFFSSFPFPFTIITFYISNPLFYFVTLLVSITYF,19100
9,AILIRSIFRVAEFAGGCVVSFSLWMCHKTTCIFLRFDTLPLWLAMSLYCVVWP,49700
10,MISFFCDIPVFSLLVPFLPLSFMFPMSPMFYYFFIYAVGCSIFLSLLFFSYVI,28100
11,MADALAENTAKLQLDEETGEMVSKGELKKRMAKRAKKAAAAKAKAEVPATTSA,20400
12,MVLLDVGWLCISRFILLDSMLLFFTFLTVFCLTKFHNQQYQSFSVDWWVWLFL,67700
13,MPLLPRWRGKACKVVILAQFDHRYYIHGTLKRLTDVVAWLKAWWICVFWLGSR,61300
14,TGGLAELQDTLDDARASFAYVRVKYSNDKESQREKFILIVWIGKSVKVMRRAK,33600
15,NIHLVNMAQVVVIFFHRLLYGIIPLFEITTCAFFPVLVSLWHLAYILFYVVMF,69100
16,MIMYKIYFYTHFRLFFYICFYVHVEFSKPILLHVVLKLIKQLVFLSTYHLFLL,47900
17,SIPPPPPPPAPPGPSRGGPPPPPPPPPPGGRGGAPPPPPPPPGGRAPPAPPAP,22100
18,VHLLLTVFFHYVPTPDPFFTNLLLCPLDGLLRANSVTLALSLLSRPSINPLLV,58300
19,GQAGAPQRASARGSVQLPAQRGAQDGEPAAARRARSRDHARHKPPRHGEAVHA,46200
20,HLFFLKNHHCFLSFIFFLFLFTLFFYFIFFLKLQFRKNNNYLFFLYKKFLTFF,36800
21,KFLRHVLLKYFSFRLRSWMLNWAIGCVVRLFFFILHLLHPSWIFFLIYPYILN,54400

row,Sequence,transcriptional activation domain activity
1,MSVYLFCGLLIFLGCGGSGWRYGFLSFFRLLLGVYVSFRYQHLIYTAWLMWAY,69200
2,SAPNDSTTAPTNASNIANTASVNKQMYFMNMNMNNNPHALNDPSILETLSPFF,71400
3,RDESLRTKDKSVSRSRSRSRARDEETDDRRERSRSADRESRREGRGRSATPQG,34800
4,LFGPLDFLDFLDFLDFLDFLDFLDFLDFLDLWTFWPWTFWTVGLFGLLDFLTF,46300
5,DSFDAPIQTLGDDQRACLKPGLWFAYKVRFCVTLKQYKVLWMCLVLLRHLRIK,48000
6,VSVGLLDLLAYCGYGFIGVNATSVVKIFSSDSFWAVYGMFSYTMICLAFFTLR,25800
7,QLECFGSTSLGWKSLKLVLRAHALCLLAAAVKEGLFEYSYVRLLADLCLSLEC,56200
8,PVRGIVELPRNSFPDEVLHFTCLTIVCAAIFFLFSSFLFFFCLLHLSCYLFVP,30800
9,ERKEAKEQTRRETESKARRGADKEGSEENREDEEGEKKERTSESTDKQKSRRT,33700
10,FNEFYPSGWPPSYFIVILRMLFLVCGLFFLWSFFFVVFFFCGLLSLLFFILVV,28500
11,IQNEDKFAESKNLSLDEFLKIFNGIYYERLRYDFNVVVIILLLTLFNHCKDFY,52700
12,ETAPATEEKPVEETKPAEEAAKTEEEKKEDEAKPIEEGHLNHKAQGLSFPKNL,55000
13,EEEAEPKPAASAPAVAPAADEEGDDQGGDDAAKKKKKKKKGKKDEDAEPAPAA,35300
14,MLYIIMKINLFMKVIMLFLVKLIVHYLMILLSLVLLLILLSSFIYICYILVLF,37800
15,MISPFHFQSLFFILFLLFFLCAWCSGWAGLRFFTPHLVSIFFLFMDWQLDLVG,48500
16,RTPTYDRRTIIQGLQQAEMNLDNSFKRVSEMILMLMIRMHDWSTLRRRFQMDQ,45200
17,MSLKRRAHRKSRNGCRECKRRRIKCDETKPHCGHCVRHGIHCVYPESAGASPA,43000
18,YLMVLYYTSRPVLFLVCAGNELCFIFIYCLGWFSHWLLWLGLLISIPVCLFKQ,71800
19,ARVQVNFWFFLFVYYGFYNLTALIWITKVFNLYSLNWWPSMLGFPLTISLIAI,75700
20,HFLGALIMLLGGYFHANLIHFGSYIWPSFLVWGLDRLIRLARVVYFNHLYFGF,34500
21,DDEGSTRDRKSHKRRSRDKDDSDEEEDRKRRKRRKERERSKDKEERRSVLTGK,28900

row,Sequence,transcriptional activation domain activity
1,LALCQLKFWAIFSSIKHVNGLLKHSYPFDRSNFNVLVKSLIRGMFYKFQERQD,40100
2,TFLANILPITFYFYFYLHFLFLFFFFLFSLSAFLFFLFLYFYFLFSPLFLPFI,63700
3,MEVVEGGGWKSFVYSCIRVIFLWGLDFGYFGLVACLISFCIGIFFSFFFPHYF,27200
4,ITQRLGENIICAVCITYLHSLLLVTILDRSEGCLLQYSLRMHIASKFQPSHQF,51500
5,MGRLLLLICFNTSGRLPFLLPLLLFFFFLLFFLYPPLHIFSFSFSLSPSNVPP,35200
6,AGAKQLAYPQKLALIQYSDHISLNILVGKGWQELNAELVCLFVILARNIFVML,45600
7,ADASKWWLLGDSFEADVLTFVSLFQFVNSALIFNYGYIFRQAWYRNYLLVSVW,56700
8,LFPFLFFFFFFLFFSFFLSFFPSSCFLLFSPFFSLVFPFFSLVFFSSFLFFSF,26800
9,FYAMVHWYKIFQSGHSIVRIFLLLIEFLYNLISLVFSWFSLANFYLCYYFLYH,49600
10,PHLFVNQGKLESYAGVVTRVVDLVLGIYVIDDCHMLILTYWPLLSPLTVLRTG,51000
11,KGFSLTELVFWLWSLGFILDELVGFSDAGFTLYVMSLWNWFDLIILLLLCSYA,49900
12,RKHMMAFYFDDILEKVVGTATMDERGVFIRDNERGILWCLLVFRMLCWLILHD,58000
13,ALLNGQCGGANYTGPTVCVCGLNIIQGFMRIRKCSSLYMIVLALKLIFITFFS,90200
14,MGFCSLYGSIFLFLFLVFFLLFFSSSVGNGASFFFFFPSILFWYSLYPLFTSF,35900
15,ESAPAAEDKPAEETKPAEAEEAPKAEEKKEEVKPIEEGHLNHKAQGLSFPKNL,< 6570
16,SASSPAATSPSACPTSSPRLRSPSSPSPSSQPPASPCTRSCPPPRPAARTARP,47500
17,RKSELIAKYGLLPRDLRKIDSSVLPHILVRHSAILISLLHLRVLIKADRVLVF,57200
18,SPLPLLICSLPSLVNPLPLLPSTLALLPPPFILYYVLQYHVILFVFLVVFCFS,33200
19,GILFATEGLYTMRFSSWYVRGLFISASIMLFFCYVVARVIIVVVMFTSLRGLP,49900
20,MPPNHPIRLFPLLVQILLLLSASSLLLDTYDYINLGINSSFSYYYFLHLLTFL,44200
